Assay results reported in patent publication US20110150759A1.
pKd: −log10 of the molar value.

Columns and labels:
[1] = molecular target: C271A/C283A-EGFR (human) (UniProt P00533); assay: flow cytometry on Ba/F3 cells, median fluorescence, average of four independent clones; reference M2 anti-FLAG antibody
[2] = molecular target: wtEGFR-FLAG (human) (UniProt P00533); assay: flow cytometry on Ba/F3 cells, median fluorescence; reference M2 anti-FLAG antibody
[3] = molecular target: EGFR 1-621 full length extracellular domain (human) (UniProt P00533); assay: SPR (BIAcore), EGFR fragment 1-621 (can form tether)
[4] = molecular target: soluble EGFR fragment 1-501 (human) (UniProt P00533); assay: SPR (BIAcore), EGFR fragment 1-501 (unable to form tether)

Chain of monoclonal antibody 806 (VH): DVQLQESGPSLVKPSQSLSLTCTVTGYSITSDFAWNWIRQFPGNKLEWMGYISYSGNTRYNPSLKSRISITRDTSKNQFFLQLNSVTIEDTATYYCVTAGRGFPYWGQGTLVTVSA
Chain of monoclonal antibody 806 (VL): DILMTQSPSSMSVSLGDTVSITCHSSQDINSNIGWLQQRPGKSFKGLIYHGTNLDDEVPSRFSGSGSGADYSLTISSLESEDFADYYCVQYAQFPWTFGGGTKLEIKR

ratio of antibody binding mAb 528/M2 [1] | ratio of antibody binding mAb 528/M2 [2] | pKd [3] | pKd [4] | Substance
1.08 | 1.37 | – | – | mAb 528 (antibody)
– | – | 6.41 | 7.47 | monoclonal antibody 806
